This note sets out measurements from US20060159683A1 (UNIVERSITY OF ZURICH, published 2006).

Numbering of substitutions follows the chain as printed.

As a reminder, the Kd is the free concentration of one partner at which half of the binding sites on the other are occupied at equilibrium, for simple one-to-one binding. The koff is a measure of how fast the partners let go of each other. Usually kon stands for the second-order rate constant of association.

The target in test [1] is T1, epithelial glycoprotein-2 (EGP-2) on SW2 human small cell lung carcinoma cells (human, UniProt P16422 24-314).
T1 construct: whole, on cells; also called GA733-2; Ep-CAM
T1 sequence (looked up): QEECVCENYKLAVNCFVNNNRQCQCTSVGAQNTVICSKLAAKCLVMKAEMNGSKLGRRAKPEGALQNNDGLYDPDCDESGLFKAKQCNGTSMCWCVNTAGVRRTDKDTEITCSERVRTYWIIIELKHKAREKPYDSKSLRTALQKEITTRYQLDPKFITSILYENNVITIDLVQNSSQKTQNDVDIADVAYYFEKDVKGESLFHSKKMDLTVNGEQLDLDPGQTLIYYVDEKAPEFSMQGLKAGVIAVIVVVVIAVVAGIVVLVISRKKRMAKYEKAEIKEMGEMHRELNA
The test can be described thus: competition RIA on SW2 cells against 99mTc-labelled 4D5MOC-A and 4D5MOC-B. The procedure: (§1) In three washing steps cells were centrifuged at 1000 g for 5 min at 4° C., the supernatants discarded and the cells re-suspended in PBS/1% BSA. The remaining radioactivity was then measured in a scintillation counter. In a further binding experiment both-scFv fragments (50 ng) were incubated with different antigens, coated (500 ng/well) on a 96 well microtiter plate, to check for cross-reactivity. The wells were washed three times with PBS/1% BSA and the radioactivity was determined.

In test [2] the target is T1, epithelial glycoprotein-2 (EGP-2) on …. Kind of test: RIA, 99mTc-labelled scFv on SW2 cells, 4 C. As for the experimental part: The binding affinity of the ^99mTc labelled single-chain Fv fragments was determined on SW2 cells in a radioimmunoaffinity assay (RIA). SW2 (0.5×10⁶) cells were incubated with increasing amounts of single-chain Fv fragment (100 pM-30 nM) for 1 hour at 4° C. For estimation of nonspecific binding control samples of cells were pre-incubated with a 100-fold excess of unlabelled single-chain. Fv fragment for 1 h at 4° C. The bound fraction of single-chain Fv fragment was determined in a scintillation counter. Each obtained value represents the mean of two samples. Counts per minutes (cpm) were plotted against the nanomolar concentration of single-chain Fv fragment and fitted with the non-linear regression function.
High-affinity binding with long residual time on the specific target antigen is regarded as one of the most important characteristics of antibodies for tumor targeting. To ensure that binding affinity was conserved in the grafting experiment dissociation constants of the radiolabelled single-chain Fv fragment were determined on cells in a radioimmunoactrvity assay (RIA).

In test [3] the target is T2, recombinant soluble human epithelial glycoprotein-2 (M1-F259) with a six-histidine C-terminal tag (human, UniProt P16422 24-259).
T2 construct: range 1-259; In SPR it was amine-coupled to a CM-5 chip at 350 RU; also called recombinant soluble EGP-2-antigen; immobilized EGP-2
T2 sequence: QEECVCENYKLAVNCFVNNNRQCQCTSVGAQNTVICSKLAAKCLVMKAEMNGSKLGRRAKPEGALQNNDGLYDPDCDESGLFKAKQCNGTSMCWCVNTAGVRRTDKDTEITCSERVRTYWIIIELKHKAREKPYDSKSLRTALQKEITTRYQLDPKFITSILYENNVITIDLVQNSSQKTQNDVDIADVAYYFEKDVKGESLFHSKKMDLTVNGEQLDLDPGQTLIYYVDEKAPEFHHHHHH
Kind of test: SPR (BIAcore), EGP-2 immobilized, low density coating and high flow rate. As for the experimental part: (§2) Kinetic rate constants were determined by surface plasmon resonance (SPR) with a BIAcore instrument. Recombinant soluble EGP-2-antigen was covalently coupled to a CM-5 sensor chip via free amine groups resulting, in a surface coverage of 350 resonance units. Single-chain Fv fragments were injected in increasing concentrations (0.1 nM 4.4 μM) at a flow rate of 30 μl/min of degassed PBS/0.005% Tween-20. Association and dissociation rate constants were calculated from the sensorgram the by a global curve fit using the BIAevaluation 3.0 software (Pharmacia).
(§3) To minimize rebinding effects which could lead to an underestimation of the off-rates, we used low density coating and high flow rate.
(SPR reads the build-up and loss of mass on a sensor chip optically.)

Test [4] deals with T2, recombinant soluble human epithelial …. The test can be described thus: SPR (BIAcore), EGP-2 immobilized, 20 C. The procedure: as §2, §3
Test [5] concerns the target T3, EGF-receptor (extracellular domain) (UniProt P00533 25-645).
T3 construct: extracellular domain
Kind of test: solid-phase RIA, 99mTc-labelled scFv on coated antigen. As for the experimental part:
as §1

For test [6], the target named is T4, c-erbB2 (UniProt P04626 23-652, limits assumed).
T4 construct: also called p185Her2
The test is described as above. The procedure:
as §1

B1: murine monoclonal antibody MOC31 (antibody, V domains shown)
VH: QVQLQQSGPELKKPGETVKISCKASGYTFTNYGMNWVKQAPGRGLKWMGWINTYTGESTYADDFKGRFAFSLETSASAAYLQINNLKNEDTATYFCARFAIKGDYWGQGTTLTVSS
VL: DIVMTQSAFSNPVTLGTSASISCRSTKSLLHSNGITYLYWYLQKPGQSPQLLIYQMSNLASGVPDRFSSSGSGTDFTLRISRVEAEDVGVYYCAQNLEIPRTFGGGTKLEIK
notes: Whole murine antibody from hybridoma MOC31; also called mAb MOC31
As for B1, the binding result in test [1] is “binds”.

B2: anti-EGP-2 scFv fragment obtained from the murine hybridoma MOC31 (scFv)
scFv: DIVMTQSAFSNPVTLGTSASISCRSTKSLLHSNGITYLYWYLQKPGQSPQLLIYQMSNLASGVPDRFSSSGSGTDFTLRISRVEAEDVGVYYCAQNLEIPRTFGGGTKLEIKRTPSHNSHQVPSAGGPTANSGTSGSQVQLQQSGPELKKPGETVKISCKASGYTFTNYGMNWVKQAPGRGLKWMGWINTYTGESTYADDFKGRFAFSLETSASAAYLQINNLKNEDTATYFCARFAIKGDYWGQGTTLTVSS
modifications: 99mTc-tricarbonyl bound to the C-terminal His tag in the RIA and Lindmo assays; unlabelled in SPR
notes: Murine scFv expressed from vector pAK400 in E. coli periplasm and purified by IMAC through its His tag; also called scFv MOC31; MOC31 scFv
B2 showed a Kd in test [2] of 10.8 nM. Further, in test [3], the half-life of binding was roughly 38 min. Moreover, in test [4], the Kd stood at 3 nM, the koff was determined as 0.0003 s⁻¹ and the kon was 99000 M⁻¹ s⁻¹.

B3: anti-EGP-2 scFv fragment 4D5MOC-A (scFv)
scFv: DIQMTQSPSSLSASVGDRVTITCRSTKSLLHSNGITYLYWYQQKPGKAPKLLIYQMSNLASGVPSRFSSSGSGTDFTLTISSLQPEDFATYYCAQNLEIPRTFGQGTKVELKRTPSHNSHQVPSAGGPTANSGTSGSEVQLVESGGGLVQPGGSLRLSCAASGYTFTNYGMNWVRQAPGKGLEWMGWINTYTGESTYADSVKGRFTFSLDTSASAAYLQMNSLRAEDTAVYYCARFAIKGDYWGQGTLVTVSS
modifications: 99mTc-tricarbonyl complexed to the C-terminal His tag in the RIA and Lindmo assays; unlabelled in SPR. The tag itself is not in the letters.
notes: the others are not; Expected mass 29,855 Da; also called scFv 4D5MOC-A; graft variant 4D5MOC-A
Regarding B3, the Kd was determined as 3.6 nM in test [2] and 3.5 nM in test [4].

B4: anti-EGP-2 scFv fragment 4D5MOC-B (scFv)
scFv: B3 scFv with E143Q, G146P, L155V, L157I, R175K, V201F, M220I, V249L
modifications: 99mTc-tricarbonyl bound to the C-terminal His tag in the RIA and Lindmo assays; unlabelled in SPR
notes: Expected mass 29,897 Da; also called scFv 4D5MOC-B
Molecule B4 had a Kd in test [2] of 3.7 nM. Moreover, in test [5], the binding result is “no binding (tested: 50 ng scFv on 500 ng/well antigen)”. Further, the binding result in test [6] is “no binding (tested: 50 ng scFv on 500 ng/well antigen)”. In test [4], the Kd came to 3.9 nM, the koff came to 0.000717 s⁻¹ and the kon was 184000 M⁻¹ s⁻¹.
